What was measured:
[1] = substrate: COc1cc(/C=N/N=C/c2cc(OC)c(O)c(OC)c2)cc(OC)c1O; test: Steady-state kinetics of RL5 laccase, spectrophotometric oxidation of laccase substrates; format: biochemical, bovine rumen metagenome; conditions: other: 40° C., pH 4.5, 14 nM protein, substrate 0 to 1 mM
Method: (§2) Protein concentrations were determined according to Bradford (31), with BSA as standard.
(§3) Laccase activity was determined spectrophotometrically in a thermostated spectrophotometer (Perkin-Elmer) at 40° C. in 100 mM sodium citrate buffer, pH 4.5 (1 ml). The standard assay was performed at 530 nm, using SGZ as the oxidation substrate (ε530=64,000 M^−1cm^−1). The reaction was started by adding SGZ, from a stock solution in methanol, to a final concentration of 20 μM. […] Catalytic constants were derived by fitting the experimental data onto the Michaelis-Menten model. Control measurements without enzyme were carried out to correct for possible chemical oxidation of the substrates.

[2] = substrate: COc1cccc(OC)c1O; test: as above; format: biochemical, bovine rumen metagenome; conditions: other: 40° C., pH 4.5, 14 nM protein, substrate 0 to 1 mM
Method: as §2, §3

[3] = substrate: CCn1c(=NN=c2sc3cc(S(=O)(=O)O)ccc3n2CC)sc2cc(S(=O)(=O)O)ccc21; test: purified protein, by the assay type; conditions: other: 40° C., pH 4.5, 14 nM protein, substrate 0 to 1 mM
[4] = Laccase activity, guaiacol as substrate; format: biochemical; conditions: data not shown
Method: (§1) Laccase activity was determined spectrophotometrically in a thermostated spectrophotometer (Perkin-Elmer) at 40° C. in 100 mM sodium citrate buffer, pH 4.5 (1 ml). The standard assay was performed at 530 nm, using SGZ as the oxidation substrate (ε530=64,000 M^−1cm^−1). The reaction was started by adding SGZ, from a stock solution in methanol, to a final concentration of 20 μM. […] Oxidation of phenol red (75 μM) was determined by the decrease in absorbance at 432 nm. The activity:pH and activity:temperature relationships were determined by incubating the enzyme:substrate mixtures at different pH values and constant temperature (40° C.), and at different temperatures (15-80° C.) and constant pH (4.5), respectively. Catalytic constants were derived by fitting the experimental data onto the Michaelis-Menten model. Control measurements without enzyme were carried out to correct for possible chemical oxidation of the substrates.

[5] = Oxidative reactions of various compounds (substrate preference, overall kinetics, pH range); format: biochemical; conditions: order of oxidized substrates
Method: as §1

[6] = pH- and temperature-dependent activity and inactivation profiles; format: biochemical; conditions: sodium citrate pH 4.5, 1 mM SGZ or DMP
Method: FIG. 2A represents the effect of various pH values on the activity of recombinant purified RL5 laccase. The activity was measured at 40° C. using 1 mM SGZ (syringaldazine) or DMP as substrate. The buffers (100 mM) used were: citrate (pH 3.0-5.5), MES (pH 5.5-7.0), HEPES (pH 7.0-8.0), Tris-HCl (pH 8.0-9.0) and glycine-NaOH (pH 9.0-12). The activity of RL5 for DMP reached an optimum at a broad pH ranging from 3.5-9.0, being optimal at 4.0-5.0; however, it maintained more than 70% activity at pH 3.5 and 9.0 (FIG. 2A).
FIG. 2B represents the pH inactivation of purified RL5 laccase in sodium citrate pH 4.5 (indicated with “∘”) or glycine-NaOH pH 9.0 (indicated with “[…]”) over a time period of 240 min. 100% activity in the purified protein sample equals 7.2 units/mg (measured at 40° C.).
FIG. 2C represents the effect of the temperature on the activity of recombinant purified RL5 laccase. The enzyme activity was assayed at each indicated temperature in sodium citrate pH 4.5 in the presence of 1 mM SGZ or DMP. Activity was monitored at 420 nm. Protein activity increased as the temperature was raised to a maximum at ˜60° C. Therefore, RL5 is stable at high temperatures.
FIG. 2D represents the thermal inactivation of purified RL5 laccase. Purified enzyme was incubated in vials at 60° C. ([…]) or 65° C. (∘). At the indicated times, samples were withdrawn and tested for laccase activity at 40° C. by using SGZ or DMP as a substrate. 100% activity in the purified protein sample equals 17.2 units/mg.
Corresponding experiments were performed with BT4389 and YfiH under conditions as described above for FIGS. 2A to 2D (data not shown). The activity of these enzymes reached an optimum at a temperature of 52° C. (for BT4389) and 44° C. (for YfiH) and the thermal activity maintained for more than 80% at 55° C. (for BT4389) and at 50° C. (for YfiH). The activity of both enzymes reached an optimum at a pH range from 4.5 to 6.0 (for BT4389) and from 5.5 to 8.4 (for YfiH), although 80% activity maintained at pH 4.0 to 7.5 (for BT4389) and 5.0 to 9.0 (for YfiH).
as §1

[7] = Laccase activity, spectrophotometric, SGZ as substrate; format: biochemical; conditions: data not shown
Method: as §1

[8] = Laccase activity, spectrophotometric, DMP as substrate; format: biochemical; conditions: data not shown
Method: as §1

[9] = Laccase activity, veratryl alcohol as substrate; format: biochemical; conditions: data not shown
Method: as §1

B1: RL5 laccase (bovine rumen metagenome), wild type, FIG. 11 (unidentified prokaryotic organism) (protein)
chain: MIELEKLDFAKSVEGVEAFSTTRGQVDGRNAYSGVNLCDYVGDDALRVLDARLTLAMQLGVDLDDLVMPRQTHSCRVAVIDERFRALDIDEQEAALEGVDALVTRLQGIVIGVNTADCVPIVLVDSQAGIVAVSHAGWRGTVGRIAKAVVEEMCRQGATVDRIQAAMGPSICQDCFEVGDEVVEAFKKAHFNLNDIVVRNPATGKAHIDLRAANRAVLVAAGVPAANIVESQHCSRCEHTSFFSARRLGINSGRTFTGIYRK
Km [1]: 0.43 µM | kcat [1]: 663.45 s⁻¹ | Km [2]: 0.45 µM | kcat [2]: 1174 s⁻¹ | Km [3]: 26.2 µM | kcat [3]: 18.05 s⁻¹

B2: YfiH: DUF152 domain containing hypothetical protein from Escherichia coli, Gene Bank AAG57706, identified as laccase (FIG. 13) (protein, listed as Escherichia coli)
chain: MSKLIVPQWPLPKGVAACSSTRIGGVSLPPYDSLNLGAHCGDNPDHVEENRKRLFAAGNLPSKPVWLEQVHGKDVLNLTGEPYASKRADASYSNTPGRVCAVMTADCLPVLFCNRAGTEVAAAHAGWRGLCAGVLEETVSCFADNPENILAWLGPAIGPRAFEVGAEVREAFMAVDAEASTAFIQHGDKYLADIYQLARQRLANVGVEQIFGGDRCTYTENETFFSYRRDKTTGRMASFIWLI
modifications: Description of sequence amino acid sequence of protein YfiH with unknown function DUF152 from Escherichia coli (Gene Bank accession number AAG57706) (see Fig. 13)
oxidation activity [4]: 0.5 units/g protein | substrate preference [5]: SGZ>DMP>>veratryl alcohol>>guaiacol | temperature optimum of activity [6]: 44 °C | oxidation activity [7]: 5.6 units/g protein | oxidation activity [8]: 4 units/g protein | oxidation activity [9]: 2.1 units/g protein

— patent publication US20090305339A1, “Polypeptides With Laccase Activity” (VIALACTIA BIOSCIENCES (NZ) LIMITED, priority 2006, published 2009)
